Laboratory results reported in publication PMC3825817 (DNA repair, 2013).

T1: human DNA polymerase δ p125 catalytic subunit (human, UniProt P28340 1-1107)
T1 sequence (looked up): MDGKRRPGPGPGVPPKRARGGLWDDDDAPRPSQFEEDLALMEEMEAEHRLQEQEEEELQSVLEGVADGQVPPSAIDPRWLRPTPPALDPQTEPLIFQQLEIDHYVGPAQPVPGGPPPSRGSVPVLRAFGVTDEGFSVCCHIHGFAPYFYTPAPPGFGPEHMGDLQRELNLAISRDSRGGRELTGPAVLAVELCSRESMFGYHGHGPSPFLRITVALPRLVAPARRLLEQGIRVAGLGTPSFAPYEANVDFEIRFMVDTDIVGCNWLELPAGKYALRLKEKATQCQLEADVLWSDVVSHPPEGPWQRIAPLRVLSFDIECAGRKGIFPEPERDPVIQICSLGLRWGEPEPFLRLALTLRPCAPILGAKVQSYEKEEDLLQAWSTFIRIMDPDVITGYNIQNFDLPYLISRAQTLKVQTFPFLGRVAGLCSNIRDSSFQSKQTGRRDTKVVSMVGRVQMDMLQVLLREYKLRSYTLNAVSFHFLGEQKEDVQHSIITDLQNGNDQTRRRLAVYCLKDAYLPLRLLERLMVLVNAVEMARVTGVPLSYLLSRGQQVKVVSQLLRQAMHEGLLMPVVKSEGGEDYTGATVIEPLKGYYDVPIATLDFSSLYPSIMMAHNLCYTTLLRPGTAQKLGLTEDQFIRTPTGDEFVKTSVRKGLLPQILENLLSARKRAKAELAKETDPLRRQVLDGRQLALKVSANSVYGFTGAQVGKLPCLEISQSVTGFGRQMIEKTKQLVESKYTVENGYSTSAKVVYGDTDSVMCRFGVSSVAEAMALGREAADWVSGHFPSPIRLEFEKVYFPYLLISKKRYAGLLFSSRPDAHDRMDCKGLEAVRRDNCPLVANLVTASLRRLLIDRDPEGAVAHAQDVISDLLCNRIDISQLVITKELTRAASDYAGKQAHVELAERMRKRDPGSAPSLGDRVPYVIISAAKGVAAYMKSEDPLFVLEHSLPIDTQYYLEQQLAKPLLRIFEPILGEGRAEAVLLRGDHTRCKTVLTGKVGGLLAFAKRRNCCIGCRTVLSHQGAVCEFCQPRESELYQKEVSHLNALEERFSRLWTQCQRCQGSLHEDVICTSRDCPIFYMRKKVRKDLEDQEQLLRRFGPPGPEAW


Biological target: T1, human DNA polymerase δ p125 catalytic …
Assay: immunoaffinity co-purification, SDS-PAGE

stoichiometry N | Binder
~1 | human DNA polymerase δ p68 subunit (natural protein, UniProt Q15054 1-466, looked up) MADQLYLENIDEFVTDQNKIVTYKWLSYTLGVHVNQAKQMLYDYVERKRKENSGAQLHVTYLVSGSLIQNGHSCHKVAVVREDKLEAVKSKLAVTASIHVYSIQKAMLKDSGPLFNTDYDILKSNLQNCSKFSAIQCAAAVPRAPAESSSSSKKFEQSHLHMSSETQANNELTTNGHGPPASKQVSQQPKGIMGMFASKAAAKTQETNKETKTEAKEVTNASAAGNKAPGKGNMMSNFFGKAAMNKFKVNLDSEQAVKEEKIVEQPTVSVTEPKLATPAGLKKSSKKAEPVKVLQKEKKRGKRVALSDDETKETENMRKKRRRIKLPESDSSEDEVFPDSPGAYEAESPSPPPPPSPPLEPVPKTEPEPPSVKSSSGENKRKRKRVLKSKTYLDGEGCIVTEKVYESESCTDSEEELNMKTSSVHRPPAMTVKKEPREERKGPKKGTAALGKANRQVSITGFFQRK
~1 | human DNA polymerase δ p50 subunit (natural protein) not shown
~1 | human DNA polymerase δ p12 subunit (natural protein, UniProt Q9HCU8 1-107, looked up) MGRKRLITDSYPVVKRREGPAGHSKGELAPELGEEPQPRDEEEAELELLRQFDLAWQYGPCTGITRLQRWCRAKQMGLEPPPEVWQVLKTHPGDPRFQCSLWHLYPL
